In US20180172701A1 (published 2018):

B1: CA185_01979 mouse IgG1 (antibody, V domains shown)
VH: EVHLVESGPGLVKPSQSLSLTCSVTGYSITNSYWDWIRKFPGNKMEWMGYINYSGSTGYNPSLKSRISISRDTSNNQFFLQLNSITTEDTATYYCARGTYGYNAYHFDYWGRGVMVTVSS
VL: DIQMTQSPASLSASLEEIVTITCQASQDIGNWLSWYQQKPGKSPHLLIYGTTSLADGVPSRFSGSRSGTQYSLKISGLQVADIGIYVCLQAYSTPFTFGSGTKLEIKR
notes: also called CA185_01979.0; VR0001842
B2: CA185_01979 mFab (no hinge) (Fab, V domains shown)
VH: EVHLVESGPGLVKPSQSLSLTCSVTGYSITNSYWDWIRKFPGNKMEWMGYINYSGSTGYNPSLKSRISISRDTSNNQFFLQLNSITTEDTATYYCARGTYGYNAYHFDYWGRGVMVTVSS
VL: DIQMTQSPASLSASLEEIVTITCQASQDIGNWLSWYQQKPGKSPHLLIYGTTSLADGVPSRFSGSRSGTQYSLKISGLQVADIGIYVCLQAYSTPFTFGSGTKLEIKR
notes: also called CA185_01979 Fab

Assays:
[1] = target: T1, human TNFα in complex with compound (1) (human, UniProt P01375 77-233); assay: SPR BIAcore T200; IgG captured on anti-mouse Fc
T1 construct: also called human TNFα +compound (1); TNFα-compound (1) complex
T1 sequence (P01375 77-233 limits assumed, one chain of several): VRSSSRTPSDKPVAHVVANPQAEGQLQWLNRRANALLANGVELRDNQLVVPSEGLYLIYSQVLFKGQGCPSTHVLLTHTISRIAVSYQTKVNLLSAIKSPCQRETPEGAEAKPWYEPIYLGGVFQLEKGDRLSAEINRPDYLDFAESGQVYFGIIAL

[2] = target: T2, human TNFα in complex with compound (2) (human, UniProt P01375 77-233); assay: SPR BIAcore T200; IgG captured on anti-mouse Fc
T2 construct: also called human TNFα +compound (2)
T2 sequence (P01375 77-233 limits assumed, one chain of several): as above

[3] = target: T1, human TNFα in complex with compound (1); assay: SPR BIAcore T200; IgG captured on anti-mouse Fc; TNFα 50 nM + 2 µM compound injected
[4] = target: T2, human TNFα in complex with compound (2); assay: as above
[5] = target: T3, human TNFα without compound (apo) (human, UniProt P01375 77-233); assay: SPR BIAcore T200; IgG captured on anti-mouse Fc; apo TNFα 50 nM injected
T3 construct: In-house human TNFα; No compound, DMSO only; also called apo human TNFα; hTNF
T3 sequence (P01375 77-233 limits assumed): as the sequence (P01375 77-233 limits assumed, one chain of several) above

[6] = target: T1, human TNFα in complex with compound (1); assay: size exclusion chromatography (HPLC), molar excess of Fab

| Binder | log selective binding for compound-distorted against apo human TNFα [1] | log selective binding for compound-distorted against apo human TNFα [2] | Kd [3] | koff [3] | kon [3] | Kd [4] | koff [4] | kon [4] | Kd [5] | koff [5] | kon [5] | stoichiometry (Fab : TNFα trimer) [6] |
| --- | --- | --- | --- | --- | --- | --- | --- | --- | --- | --- | --- | --- |
| B1 | > 2 log | > 2 log | 0.034 nM | 1.6e-05 s⁻¹ | 470000 M⁻¹ s⁻¹ | 0.058 nM | 3.3e-05 s⁻¹ | 570000 M⁻¹ s⁻¹ | 6.7 nM | 0.00071 s⁻¹ | 110000 M⁻¹ s⁻¹ | – |
| B2 | – | – | – | – | – | – | – | – | – | – | – | 1 Fab per TNFα trimer |
